# “And” between values parts separate entries of the source, which are not always exact repeats. Equal entries are not always repeated. Where two headings read alike, the source gives them in different places.
# T1: human IL-1α (human, UniProt P01583 113-271)
# T1 sequence (looked up): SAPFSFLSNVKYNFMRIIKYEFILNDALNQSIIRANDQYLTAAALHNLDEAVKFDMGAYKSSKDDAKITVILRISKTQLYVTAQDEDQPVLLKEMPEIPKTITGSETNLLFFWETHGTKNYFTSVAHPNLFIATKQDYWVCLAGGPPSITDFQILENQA
# What was measured:
# [1] = target: T2, human IL-1β (human, UniProt P01584 117-269); assay: cell-based or functional assay
# [2] = target: T2, human IL-1β; assay: BIAcore kinetic analysis of the dAb
# [3] = target: T1, human IL-1α; assay: cell-based or functional assay
# [4] = target: T1, human IL-1α; assay: BIAcore kinetic analysis of the dAb
# [5] = target: T2, human IL-1β; assay: BIAcore kinetic analysis of the dAb; remark: listed apart in the source
# [6] = target: T2, human IL-1β; assay: BIAcore kinetic analysis of the dAb; remark: listed apart in the source
# [7] = target: T2, human IL-1β; assay: BIAcore kinetic analysis of the dAb; remark: listed apart in the source
# [8] = target: T2, human IL-1β; assay: BIAcore kinetic analysis of the dAb; remark: listed apart in the source
# [9] = target: T1, human IL-1α; assay: BIAcore kinetic analysis of the dAb; remark: listed apart in the source
# [10] = target: T1, human IL-1α; assay: BIAcore, IL-1α coated chip, dAb flowed over
# [11] = target: T2, human IL-1β; assay: cell-based or functional assay; remark: listed apart in the source
# [12] = target: T2, human IL-1β; assay: BIAcore kinetic analysis of the dAb; remark: listed apart in the source
# [13] = target: T1, human IL-1α; assay: method not given
# [14] = target: T1, human IL-1α; assay: cell-based or functional assay; remark: listed apart in the source
# [15] = target: T1, human IL-1α; assay: BIAcore, purified dAb
# [16] = target: T2, human IL-1β; assay: Biacore, IgG captured by goat anti-human IgG Fc; rhIL-1 alpha 100 nM then rhIL-1 beta 200 nM
# Method: (§1) The antibody (1-5 ug/ml) was first captured on a goat anti human IgG FC surface.
# [17] = target: T1, human IL-1α; assay: as above
# Method: as §1
# [18] = target: T2, human IL-1β; assay: Biacore, IgG captured by goat anti-human IgG Fc; rhIL-1 beta followed by rhIL-1 alpha
# Method: as §1
# [19] = target: T2, human IL-1β; assay: Biacore, IgG captured by goat anti-human IgG Fc
# [20] = target: T1, human IL-1α; assay: Biacore, IgG captured by goat anti-human IgG Fc
# [21] = target: T2, human IL-1β; assay: cell-based or functional assay; remark: listed apart in the source
# [22] = target: T1, human IL-1α; assay: cell-based or functional assay; remark: listed apart in the source
# [23] = target: T2, human IL-1β; assay: cell-based or functional assay; remark: listed apart in the source
# [24] = target: T1, human IL-1α; assay: cell-based or functional assay; remark: listed apart in the source
# [25] = target: T1, human IL-1α; assay: cell-based or functional assay; remark: listed apart in the source
# [26] = target: T1, human IL-1α; assay: BIAcore, purified dAb; remark: listed apart in the source
# [27] = target: T1, human IL-1α; assay: cell-based or functional assay; remark: listed apart in the source
# [28] = target: T1, human IL-1α; assay: BIAcore kinetic analysis of the dAb; remark: listed apart in the source
binder,measurement,setting,value
"ABT2-13 (other, dAb, VH, to IL-1β; also called dAb ABT2-13) VH: EVQLLESGGGLVQPGGSLRLSCAASGFTFRDYVMYWARQAPGKGLEWVSRIDPMGSSTYYADSVKGRFTISRDNSKNTLYLQMNSLRAEDTAVYYCAKPEGNFDYWGQGTLVTVSS",MRC5 ND10,[1],100 nM
same,MRC5 ND50,[1],800 nM
same,Kd,[2],930 nM
same,koff,[2],0.075 s⁻¹
same,kon,[2],81000 M⁻¹ s⁻¹
"ABT1-98 (other, dAb, VH, to IL-1α; also called dAb ABT1-98) VH: EVQLLESGGGLVQPGGSLRLSCAASGFTFDGYIMSWVRQAPGKGLEWVSTISPLGSVTYYADSVKGRFTISRDNSKNTLYLQMNSLRAEDTAVYYCAKKGPWFDYWGQGTLVTVSS",MRC5 ND10,[3],10 nM
same,MRC5 ND50,[3],30 nM
same,Kd,[4],13 nM
same,koff,[4],0.027 s⁻¹
same,kon,[4],2e+06 M⁻¹ s⁻¹
"ABT2-108 (other, dAb, VH, to IL-1β) VH: EVQLLESGGGLVQPGGSLRLSCAASGFTFAEYTMMWVRQAPGKGLEWVSRIGQDGKNTYYADSVKGRFTISRDNSKNTLYLQMNSLRAEDTAVYYCAKYTGRVGVHHLFDYWGQGTLVTSS",MRC5 ND10,[1],150 nM
same,MRC5 ND50,[1],250 nM
same,Kd,[5],110 nM
same,koff,[5],0.0031 s⁻¹
same,kon,[5],29000 M⁻¹ s⁻¹
"ABT2-46 (other, dAb, Vκ, to IL-1β; also called dAb ABT2-46) VL: DIQMTQSPSSLSASVGDRVTITCRASQSIIEWLSWYQQKPGKAPKLLIYRTSVLQSGVPSRFSGSGSGTDFTLTISSLQPEDFATYYCQQNEFWPFTFGQGTKVEIKR",Kd,[6],2800 nM
same,koff,[6],0.063 s⁻¹
same,kon,[6],23000 M⁻¹ s⁻¹
same,MRC5 ND10,[1],70 nM
same,MRC5 ND50,[1],386 nM
"ABT2-42 (other, dAb, Vκ, to IL-1β; also called dAb ABT2-42) VL: DIQMTQSPSSLSASVGDRVTITCRASQYIEKWLTWYQQKPGKAPTLLIYRGSLLQSGVPSRFSGSGSGTDFTLTISSLQPEDFATYYCQQTEYWPFTFGQGTKVEIKR",MRC5 ND10,[1],100 nM
same,MRC5 ND50,[1],770 nM
same,Kd,[7],54000 nM
same,koff,[7],0.13 s⁻¹
same,kon,[7],2500 M⁻¹ s⁻¹
"ABT2-76 (other, dAb, Vκ, to IL-1β; also called dAb ABT2-76) VL: DIQMTQSPSSLSASVGDRVTITCRASQSIDRWLAWYQQKPGKAPKLLIYRGSILQSGVPSRFSGSGSGTDFTLTISSLQPEDFATYYCQQVAFWPPTFGQGTKVEIKR",MRC5 ND10,[1],50 nM
same,MRC5 ND50,[1],456 nM
same,Kd,[8],1300 nM
same,koff,[8],0.027 s⁻¹
same,kon,[8],20000 M⁻¹ s⁻¹
"ABT1-122 (other, dAb, Vκ, to IL-1α) VL: DIQMTQSPSSLSASVGDRVTITCRASQPIWTELNWYQQKPGKAPKLLIYGSSSLQSGVPSRFSGSGSGTDFTLTISSLQPEDFATYYCQQFAYFPATFGQGTKVEIKR",MRC5 ND10,[3],9 nM
same,MRC5 ND50,[3],50 nM
same,Kd,[9],42 nM
same,koff,[9],0.28 s⁻¹
same,kon,[9],6.6e+06 M⁻¹ s⁻¹
same,Kd,[10],40 to 86 nM
"ABT2-65 (other, dAb, VH, to IL-1β; also called dAb ABT2-65) VH: EVQLLESGGGLVQPGGSLRLSCAASGFTFEDYQMGWVRQAPGKGLEWVSSISAMGNRTYYADSVKGRFTISRDDSKNTLYLQMNSLRAEDTAVYYCAKNLVRTQSKMWMFDYWGQGTLVTVSS",MRC5 ND50,[11],266 nM
same,Kd,[12],97 nM
same,koff,[12],0.02 s⁻¹
same,kon,[12],250000 M⁻¹ s⁻¹
same,MRC5 ND10,[1],100 nM
same,MRC5 ND50,[1],266 nM
"ABT1-95-3 (other, dAb, Vκ, to IL-1α) VL: DIQMTQSPSSLSASVGDRVTITCRASQPIHGNLRWYQQKPGKAPKLLIYSSSYLQSGVPSRFSGSGSGTDFTLTISSLQPEDFATYHCQQGYRWPVTFGQGTKVEIKR",Kd,[13],5 to 10 nM
same,Kd,[10],7 to 12 nM
same,MRC5 ND50,[14],50000 pM
same,Kd,[15],5.4 nM
"ABT2-108-620x/ABT1-95-A3 hu IgG1/K mut (234; 235) (bispecific antibody, V domains shown, hu IgG1/K mut (234)) VH: EVQLLESGGGLVQPGGSLRLSCAASGFTFAEESWMWVRQAPGKGLEWVSRIGQDGKNTYYREDVKGRFTISRDNSKNTLYLQMNSLRAEDTAVYYCAKYTGRIMGHHLFDYWGQGTLVTVSS VL: DIQMTQSPSSLSASVGDRVTITCRASKPGVRNMRWYQQKPGKAPKLLIYSVSYLEPGVPSRFSGSGSGTDFTLTISSLQPEDFATYHCLQGYRWPPTFGQGTKVEIKR",stoichiometry,[16],0.9
same,stoichiometry,[17],2
same,stoichiometry,[18],0.98
same,Kd,[19],0.446 nM and 0.361 nM
same,koff,[19],0.000138 s⁻¹ and 0.000102 s⁻¹
same,kon,[19],315000 M⁻¹ s⁻¹ and 283000 M⁻¹ s⁻¹
same,Kd,[19]; mean,0.404 nM
same,koff,[19]; mean,0.00012 s⁻¹
same,kon,[19]; mean,299000 M⁻¹ s⁻¹
same,Kd,[20],0.0887 nM and 0.0835 nM
same,koff,[20],4.25e-05 s⁻¹ and 4.11e-05 s⁻¹
same,kon,[20],479000 M⁻¹ s⁻¹ and 492000 M⁻¹ s⁻¹
same,IL-1β IC50,[21],0.0073 nM
same,IL-1α IC50,[22],0.002 nM
same,IC50 (MRC-5 neutralization assay),[23],0.00558 nM
same,IC50 (MRC-5 neutralization assay),[24],< 0.001 nM
same,MRC-5 IL-1a inhibition assay EC50,[24],0.00446 nM
"ABT1-95-13 (other, dAb, Vκ, to IL-1α) VL: DIQMTQSPSSLSASVGDRVTITCRASQPIVRNLRWYQQKPGKAPKLLIYSSSYLERGVPSRFSGSGSGTDFTLTISSLQPEDFATYHCQQGYRWPVTFGQGTKVEIKR",ND50,[25],120 pM
same,MRC5 ND50,[14],110 pM
same,Kd,[26],0.95 nM
"ABT1-95-15 (other, dAb, Vκ, to IL-1α) VL: DIQMTQSPSSLSASVGDRVTITCRASQPIVRNLRWYQQKPGKAPKLLIYSSSYLEPGVPSRFSGSGSGTDFTLTISSLQPEDFATYHCQQGYRWPVTFGQGTKVEIKR",ND50,[25],45 pM
same,Kd,[26],0.67 nM
"ABT1-141 (other, dAb, Vκ, to IL-1α; also called dAb ABT1-141) VL: DIQMTQSPSSLSASVGDRVTITCRASQWIQKQLAWYQQKPGKAPKLLIYSSSYLQSGVPSRFSGSGSGTDFTLTISSLQPEDFATYYCQQHLRVPFTFGQGTKVEIKR",MRC5 ND50,[27],70 nM
same,MRC5 ND10,[3],10 nM
same,MRC5 ND50,[3],70 nM
same,Kd,[28],300 nM
same,koff,[28],0.0039 s⁻¹
same,kon,[28],13000 M⁻¹ s⁻¹
"ABT1-95-14 (other, dAb, Vκ, to IL-1α) VL: DIQMTQSPSSLSASVGDRVTITCRASQPIVKNLRWYQQKPGKAPKLLIYSSSYLERGVPSRFSGSGSGTDFTLTISSLQPEDFATYHCQQGYRWPVTFGQGTKVEIKR",ND50,[25],250 pM
same,MRC5 ND50,[14],250 pM
same,Kd,[26],1.2 nM

# — patent publication US20090291081A1 (AbbVie / Abbott, published 2009)
